Laboratory results reported in patent US6132722A, “Recombinant antibody-enzyme fusion proteins” (Bristol-Myers Squibb Company, priority 1998, dated 2000).

Experiments:
[1] = test system: 3677 melanoma xenografts; assay: In vivo therapy of established s.c. 3677 melanoma xenografts; design: species or system nude mice
Procedure: FIGS. 10A-10D. Therapeutic effects of L49-sFv-bL/CCM combinations in nude mice (six mice/group) with subcutaneous 3677 melanoma xenografts. Conjugates were injected, followed at various times by CCM (arrows on the X-axis). […] FIG. 10A. L49-sFv-bL (1 mg/kg/injection) 12 h before CCM. FIG. 10B. L49-sFv-bL (1 mg/kg/injection) 24 h before CCM. FIG. 10C. L49-sFv-bL (4 mg/kg/injection) 24 h before CCM. FIG. 10D. L49-sFv-bL (4 mg/kg/injection) 48 h before CCM.
In Vivo Therapy Experiments. 3677 tumor-bearing mice (subcutaneous implants, six animals/group, average tumor volume 130 mm^3) were injected with L49-sFv-bL (i.v., 7-8 days post tumor implant), followed 12-48 h later by CCM using doses of fusion protein and prodrug as indicated in the Results section. Treatment with L49-sFv-bL+CCM was repeated 1 week later. Animals were monitored 1-2 times/week for body weight, general health, and tumor growth. Tumor volume was estimated using the formula: longest length×perpendicular dimension^2 /2. Cures were defined as an established tumor that, after treatment, was not palpable for ≥10 tumor volume doubling delays (≥40 days in the 3677 tumor model). Maximum tolerated doses led to less than 20% weight loss, no treatment-related deaths, and were within 50% of the dose where such events took place.
Therapeutic Activity. In vivo therapy experiments were performed using the L49-sFv-bL/CCM combination in nude mice with established s.c. 3677 tumors. […] In the experiments reported here, conjugate treatment was initiated 7-8 days after tumor implant, at which time the tumors were approximately 130 mm^3 in volume. CCM was then administered 12, 24, or 48 h later, and the treatment protocol was repeated after 1 week. Maximum tolerated doses are defined as those that led to less than 20% weight loss, no treatment-related deaths, and were within 50% of the dose where such events took place. A tumor was considered as having been cured once it was not palpable for at least 10 tumor volume doubling times, based on the tumor growth of untreated animals (tumor volume doubling time was 4 days). If an animal was removed from the experiment because of tumor growth, the data from the entire group was no longer plotted, but the remaining animals were followed for tumor size and general health.

[2] = Clearance of conjugate from the blood of nude mice; format: in vivo
Procedure: FIGS. 9A and 9B depict pharmacokinetics of L49-sFv-bL in nude mice (3 animals/group). L49-sFv-bL was injected intravenously, tissues were removed and extracted at the indicated times, and the β-lactamase activity was determined using nitrocefin as a substrate. FIG. 9A depicts clearance of L49-sFv-bL from the blood. Injected dose was 4 mg/kg. FIG. 9B depicts L49-sFv-bL levels in subcutaneous 3677 melanoma tumors and in normal tissues. Injected dose was 1 mg/kg.
(§1) Conjugate Localization. Subcutaneous 3677 melanoma tumors were established in female athymic nu/nu mice (8-12 weeks old, Harlan Sprague-Dawley, Indianapolis, Ind.) by transplanting tumors that had been previously passaged as previously described (Kerr et al., Cancer Res., 55:3558-3563 (1995)). Tumor bearing mice were injected i.v. with L49-sFv-bL (1 or 4 mg mAb component/kg) or with L49-Fab'-bL (1.8 mg mAb component/kg). At various time intervals, the mice were anesthetized, bled through the orbital plexus, and sacrificed. Tissues were removed and homogenized in PBS containing 15 μg/ml aprotinin (2 mL/g tissue). To the homogenate was added 50 mM sodium phosphate containing 100 mM NaCl at pH 11.2 (10 ml/g tissue), and the suspension was mixed. After 20 min at room temperature, 3M sodium phosphate at pH 7.0 was added (2 ml/g tissue), and the mixture was mixed and centrifuged.
(§2) Quantification of conjugate concentrations was accomplished using a direct enzyme immunoassay. Polystyrene 96-well microtiter plates were coated with an affinity-purified rabbit polyclonal antisera to wild type E. cloacae bL (1 μg/ml), and were then blocked with specimen diluent (Genetic Systems Corp.). Serially diluted tissue extracts or purified samples (L49-sFv-bL as a standard for the fusion protein samples, L49-Fab'-bL as a standard for the L49-Fab'-bL samples) were added to the wells and allowed to bind for 3 h at room temperature. The plates were washed and developed by the addition of 0.1 ml of nitrocefin (O'Callaghan et al., Antimicrobial Agents and Chemotherapy, 1:283-288 (1972)) at 0.1 mM in PBS containing 1% dimethylformamide. Absorbance measurements were read in an ELISA plate reader using a 490 nm filter with 630 nm as the reference wavelength.
(§3) In Vivo Localization. Biodistribution studies of L49-sFv-bL and L49-Fab'-bL were carried out in nude mice bearing subcutaneous (s.c.) 3677 melanoma tumor xenografts. The conjugates were injected i.v., and at various time points tissues were removed and extracted under alkaline conditions to disrupt antigen-antibody interactions. The samples were then trapped a polyclonal antiserum to bL, and bL activity was measured using nitrocefin as a colorimetric indicator (O'Callaghan et al, Antimicrobial Agents and Chemotherapy, 1:283-288 (1972)).

[3] = Tissue distribution of immunoconjugates in nude mice bearing s.c. 3677 melanoma xenografts; format: in vivo
Procedure: as §1, §2, §3

[4] = L49-sFv-bL 1 mg/kg/injection, CCM 75 mg/kg/injection 12 h later

B1: L49-sFv-bL: recombinant fusion protein: L49 anti-p97 single-chain Fv (VH-218 linker-VL) fused to r2-1 mutant E. cloacae β-lactamase, SEQ ID NO: 20 (protein)
chain: MKYLLPTAAAGLLLLAAQPAMAEVQLQESGPSLVKPSQTLSLTCSVTGDSITSGYWNWIRKFPGNKLEYMGYISDSGITYYNPSLKSRISITRDTSKNQYYLQLNFVTAEDTATYNCARRTLATYYAMDYWGQGTSVTVSSGSTSGSGKPGSGEGSTKGDFVMTQTPLSLPVSLGDQASISCRASQSLVHSNGNTYLHWYLQKPGQSPKLLIYRVSNRFSGVPDRFSGSGSGTDFTLKISRVEAEDLGVYFCSQSTHVPPTFGGGTKLEIKRTPVSEKQLAEVVANTITPLMKAQSVPGMAVAVIYQGKPHYYTFGKADIAANKPVTPQTLFELGSISKTFTGVLGGDAIARGEISLDDAVTRYWPQLTGKQWQGIRMLDLATYTAGGLPLQVPDEVTDNASLLRFYQNWQPQWKPGTTRLYANASIGLFGALAVKPSGMPYEQAMTTRVLKPLKLDHTWINVPKAEEAHYAWGYRDGKAVRVSPGMLDAQAYGVKTNVQDMANWVMANMAPENVADASLKQGIALAQSRYWRIGSMYQGLGWEMLNWPVEANTVVETSFGNVALAPLPVAEVNPPAPPVKASWVHKTGSTGGFGSYVAFIPEKQIGIVMLANTSYPNPARVEAAYHILEALQTSEFE
toxicity ([1]; CCM 24 h post conjugate, both cases (FIG. 10B, 10C)): no evidence of toxicity
cures in the group of six mice [1, 4]: four
tumor response of the remaining two animals [1, 4]: partial regressions
tumor cures ([1]; L49-sFv-bL 1 mg/kg/injection, CCM 125 and 175 mg/kg/injection 12 h later, repeated after 1 week): all of the animals
tumors cured ([1]; L49-sFv-bL 1 mg/kg/injection, increased CCM dose 24 h later (FIG. 10B)): the majority of tumors were cured
animals cured, of six ([1]; L49-sFv-bL 4 mg/kg/injection, CCM 275 mg/kg/injection 48 h later): three
tumors cured ([1]; L49-sFv-bL 4 mg/kg/injection, CCM 24 h later (FIG. 10C)): the majority of tumors were cured
tumor regressions ([1]; L49-sFv-bL 4 mg/kg/injection, CCM 48 h later (FIG. 10D)): all of the mice
toxicity ([1]; L49-sFv-bL then CCM 75, 125 or 175 mg/kg/injection 12 h later): no apparent toxicities
initial clearance half life t1/2 α ([2]; blood, i.v., 4 mg/kg): 0.3 h
terminal clearance half life t1/2 β ([2]; blood, i.v., 4 mg/kg): 2.5 h
clearance from the blood ([2]; i.v., nude mice): cleared very rapidly
reduction of blood levels ([2]; within 24 h of conjugate administration): 10^4
tumor/tissue ratios Blood ([3]; 1 mg/kg i.v., 4 hrs): 13
tumor/tissue ratios Kidney ([3]; 1 mg/kg i.v., 4 hrs): 41
tumor/tissue ratios Liver ([3]; 1 mg/kg i.v., 4 hrs): 52
tumor/tissue ratios Spleen ([3]; 1 mg/kg i.v., 4 hrs): 79
tumor/tissue ratios Tumor ([3]; 1 mg/kg i.v., 4 hrs): 1
tumor/tissue ratios Blood ([3]; 1 mg/kg i.v., 12 hrs): 66
tumor/tissue ratios Kidney ([3]; 1 mg/kg i.v., 12 hrs): > 177
tumor/tissue ratios Liver ([3]; 1 mg/kg i.v., 12 hrs): > 177
tumor/tissue ratios Spleen ([3]; 1 mg/kg i.v., 12 hrs): > 177
tumor/tissue ratios Tumor ([3]; 1 mg/kg i.v., 12 hrs): 1
tumor/tissue ratios Blood ([3]; 1 mg/kg i.v., 24 hrs): 105
tumor/tissue ratios Kidney ([3]; 1 mg/kg i.v., 24 hrs): > 70
tumor/tissue ratios Liver ([3]; 1 mg/kg i.v., 24 hrs): > 70
tumor/tissue ratios Spleen ([3]; 1 mg/kg i.v., 24 hrs): > 70
tumor/tissue ratios Tumor ([3]; 1 mg/kg i.v., 24 hrs): 1
tumor/tissue ratios Blood ([3]; 4 mg/kg i.v., 12 hrs): 81
tumor/tissue ratios Kidney ([3]; 4 mg/kg i.v., 12 hrs): > 240
tumor/tissue ratios Liver ([3]; 4 mg/kg i.v., 12 hrs): > 240
tumor/tissue ratios Spleen ([3]; 4 mg/kg i.v., 12 hrs): > 240
tumor/tissue ratios Tumor ([3]; 4 mg/kg i.v., 12 hrs): 1
tumor/tissue ratios Blood ([3]; 4 mg/kg i.v., 24 hrs): 141
tumor/tissue ratios Kidney ([3]; 4 mg/kg i.v., 24 hrs): > 290
tumor/tissue ratios Liver ([3]; 4 mg/kg i.v., 24 hrs): > 290
tumor/tissue ratios Spleen ([3]; 4 mg/kg i.v., 24 hrs): > 290
tumor/tissue ratios Tumor ([3]; 4 mg/kg i.v., 24 hrs): 1
tumor/tissue ratios Blood ([3]; 4 mg/kg i.v., 48 hrs): 150
tumor/tissue ratios Tumor ([3]; 4 mg/kg i.v., 48 hrs): 1
tumor to blood ratios ([3]; 4 mg/kg, 24-48 h after the conjugate was administered): 141-151
